SMILES strings stand for the structures.

On the set-up of this data set: species or system mice. The following applies: mouse, in vivo. The text has this:
{circumflex over (4)} Biodistribution of ^68Ga-NOTA-3PEG4-TATE-RGD in Healthy Mice
There was small amount of uptake in the heart, liver and lungs, which decreased quickly over time.

As for `CC(O)[C@@H]1NC(=O)[C@H](CCCCN)NC(=O)[C@@H](Cc2c[nH]c3ccccc23)NC(=O)[C@H](Cc2ccc(O)cc2)NC(=O)[C@@H](NC(=O)[C@@H](Cc2ccccc2)NC(=O)COCCOCCOCCOCCNC(=O)C(CCC(=O)NCCOCCOCCOCCOCC(=O)NCCCC[C@@H]2NC(=O)[C@@H](Cc3ccc(O)cc3)NC(=O)[C@H](CC(=O)O)NC(=O)CNC(=O)[C@H](CCCNC(=N)N)NC2=O)NC(=O)COCCOCCOCCOCCNC(=S)Nc2ccc(CC3CN(CC(=O)O)CCN(CC(=O)O)CCN3CC(=O)O)cc2)CSSC[C@@H](C(=O)N[C@H](C(=O)O)[C@@H](C)O)NC1=O` (stereo partly drawn) [^68Ga-NOTA-3PEG4-TATE-RGD, metal not drawn], the “clearance from blood, heart and liver” value is “cleared from the blood, heart and liver faster”; the “distribution in brain tissues / blood-brain barrier passage” value was “could not pass through the blood-brain barrier”; the route of excretion result is “mainly excreted through the kidneys”.
